The subject of this series is MS2 coat protein. In words: apparent KD of MS2 coat protein; designed switch direction (-1 OFF switch, 1 ON switch): -1; higher = weaker reporter binding. An outline of the steps: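 Normalised cluster fluorescence was curve-fitted, and each design's median over clusters is its apparent KD. Before this, SNAP-549-labelled MS2 coat protein was titrated from 0.7 or 1.5 nM, doubling to 3 µM, over RNA switches transcribed on Illumina chips by stalled E. coli RNA polymerase. Titrations had no input, 200 uM small-molecule ligand, or an oligonucleotide input, and steps lasted 0.8–1.5 h (lowest) to 10–20 min (highest).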

[1] abbreviates: Eterna round: R95, input ligand: microRNA oligo, concentration not stated.
The mark [2] stands for this setting: Eterna round: R95, input ligand: FMN 200 uM.
[3] abbreviates: Eterna round: R95, input ligand: none.
[4] abbreviates: input ligand: microRNA oligo, concentration not stated.

As to “AUAUUACGAGGAUAUCGUUUUUAUCACAUGAGGAUCACCCAUGUAAUUUAUGUUUCGUUUCGAGAAGGCGUAAGUU [JR_E5_Sub068] (puzzle: Exclusion 5)”, the “apparent KD of MS2 coat protein” value under setting [1] came to 17.8 nM.
On the same count and under the same terms, to “AUAUUACGAGGAUAUCGUUUUUUUCACAUGAGGAUCACCCAUGUUAUCCAUGUUUCGUUUCGAGAAGGCGUAAGUU [JR_E5_Sub070] (puzzle: Exclusion 5)” belongs 46.9 nM.
Take “AUCAUGUCAGGAUAUAUGACAUGGCUCUUCGGAGCAAGAUCAUAGAAGGGACAUGAGGAUCACCCAUGUAGAUC [Ex4-3: 23] (puzzle: Exclusion 4)”: the “apparent KD of MS2 coat protein” value amounted to 41.9 nM under setting [2], 195 nM under setting [1] and 188 nM under setting [3].
“AUCCCUUGAGUAAGGAUAUGGCCAGGGAGGUCUGGCCAGAAGGUACAUGAGGAUCACCCAUGUAGGUUGUCGCA [Eternabot (L2) Solution 44] (Eterna round: R97, puzzle: Brourd's mod of Exclusion 4)”: the “apparent KD of MS2 coat protein” value was determined as 56 nM (input ligand: FMN 200 uM) and 20.6 nM (input ligand: none).
As to “AUCCGUUCUUAGGAUAUUUGAUAAGUCAUGUACGAAGAAGGAAGAACAUGAGGAUCACCCAUGUGGGACUUCGG [Eternabot (L2) Solution 12] (Eterna round: R97, puzzle: Exclusion 6)”, the “apparent KD of MS2 coat protein” value is, setting by setting: (input ligand: FMN 200 uM) 29 nM; (input ligand: none) 25.9 nM.
The matching figures for “AUCCUUAACAAGGAUAUCGGGCGGGUUUUUGUUUGAGAAGGUGUGACAUGAGGAUCACCCAUGUGGCGCGUGGG [-22, -20.4 kcal, A 22%] (Eterna round: R97, puzzle: Exclusion 6)”: 285 nM and 887 nM.
On the same counts, the results for “AUCGGCUCAGUCAGGAUAUGAUUGAAUCGUUGCAAUUAGAAGGGACAUGAGGAUCACCCAUGUGCGGUGCGGUC [Eternabot (L1) Solution 27] (Eterna round: R97, puzzle: Brourd's mod of Exclusion 4)” are 178 nM and 169 nM.
Take “AUCGGGUCAGGAUAUCAUAGGAGCUGAUAUCCUCGGCUCGGUGAGAAGGGACUUGAGGAUCACCCAAGUAGGGC [Ririonte] (Eterna round: R97, puzzle: Exclusion 4)”: the “apparent KD of MS2 coat protein” value (input ligand: FMN 200 uM) was 44.4 nM and the “apparent KD of MS2 coat protein” value (input ligand: none) was determined as 46.1 nM.
Regarding “AUCGUGCAGCAAAGCUGUACGAGUACAUGAGGAUCACCCAUGUAGGAUAUGGUACGCAAAGCGUGCUAGAAGGAUAUGUGUAGG [Mat - Exclusion NG 3 - Mod of JL - D84] (Eterna round: R96, puzzle: Exclusion NG 3)”, the “apparent KD of MS2 coat protein” value (input ligand: FMN 200 uM) was determined as 69.6 nM, the “apparent KD of MS2 coat protein” value under setting [4] was determined as 44.6 nM and the “apparent KD of MS2 coat protein” value (input ligand: none) is 57.1 nM.
On the same counts, the results for “AUCGUGCAGCUUUGCUGUACGAGUACAUGAGGAUCACCCAUGUAGGAUAUGGUACGCAAAGCGUGCUAGAAGGAUAUGAGAAAU [Mat - Exclusion NG 3 - Mod of JL - D99] (Eterna round: R96, puzzle: Exclusion NG 3)” are 30.7 nM, 18.8 nM and 36.3 nM.
In the case of “AUCGUGCAGCUUUGCUGUACGAGUACAUGAGGAUCACCCAUGUAGGAUAUGGUACGCUUUGCGUGCUAGAAGGAUAUGCGAUUG [EX ENG3 1.46] (Eterna round: R96, puzzle: Exclusion NG 3)”, the “apparent KD of MS2 coat protein” value under setting [4] amounted to 36.5 nM.
With “AUCGUGCAGCUUUGCUGUACGAGUACAUGAGGAUCACCCAUGUAGGAUAUGGUACGCUUUGCGUGCUAGAAGGAUAUGUGUAGG [JL EXNG3 1.36] (Eterna round: R96, puzzle: Exclusion NG 3)”, the “apparent KD of MS2 coat protein” value reads like this: (input ligand: FMN 200 uM) 49.1 nM; under setting [4], 30.7 nM; (input ligand: none) 50.3 nM.
Consider “AUCGUGUGAGGAUAUCGAUCAUGGAGGUCUAGGUCCAUGCGCGAGAAGGCACAUGAGGAUCACCCAUGUAAUGG [jl-ex4-4.30 ViennaUCT mod] (Eterna round: R97, puzzle: Exclusion 4)”, for which the “apparent KD of MS2 coat protein” value (input ligand: FMN 200 uM) amounted to 65.3 nM and the “apparent KD of MS2 coat protein” value (input ligand: none) was determined as 66.5 nM.
Consider “AUCUACCGAGCAGGAUAUCCAGGCACAUGAGGAUCACCCAUGUCAGGGAGAGAAGUUGUUUGCGUGGAGAAGGGCUAUAAAUUA [Isdiatte] (Eterna round: R96, puzzle: Exclusion NG 2)”, for which the “apparent KD of MS2 coat protein” value (input ligand: FMN 200 uM) stood at 314 nM, the “apparent KD of MS2 coat protein” value under setting [4] turned out to be 163 nM and the “apparent KD of MS2 coat protein” value (input ligand: none) is 162 nM.
Turning to “AUCUGUGAGCGAGGAUAUCUGCUGUUGUCGGUCGGAGAAGGCGCGGACAGAACAUGAGGAUCACCCAUGUGUAUGGGCGGCCUC [Isvetima] (Eterna round: R96, puzzle: Exclusion NG 1)”, the “apparent KD of MS2 coat protein” value worked out at 256 nM (input ligand: FMN 200 uM), 14.1 nM under setting [4] and 99.6 nM (input ligand: none).
Turning to “AUGAGACAUGAGGAUCACCCAUGUGAGGAUAUGUAUGGAUGGAGGAAAGAAUGAGAGAACAGAAGGCACGGAGG [JR_Exclu1_Sub065] (puzzle: Exclusion 1)”, the “apparent KD of MS2 coat protein” value by setting is: under setting [2], 70.7 nM; under setting [1], 72.7 nM; under setting [3], 112 nM.
Consider “AUGCGACAUGAGGAUCACCCAUGUGAGGAUAUGCGAAUGCAGACUUCGGUUUGAUAGAGCAGAAGGCGCAGGUA [EX1 #15] (Eterna round: R97, puzzle: Exclusion 1)”, for which the “apparent KD of MS2 coat protein” value by setting is: (input ligand: FMN 200 uM) 58.5 nM; (input ligand: none) 29.4 nM.
With “AUGCUCCGUGUAGGAUAUCGCCGUACCACUCGGCGAGAAGGACAUGAGGAUCACCCAUGUAUGUUAUUAUCACGUGUGGCGCGC [Design 50] (Eterna round: R96, puzzle: Exclusion NG 1)”, the “apparent KD of MS2 coat protein” value by setting is: (input ligand: FMN 200 uM) 46 nM; under setting [4], 12.9 nM; (input ligand: none) 20.5 nM.
On to “AUGGCAAAGUUAGGAUAUGCAGUCUCCAAGACUGCAGAAGGAACGGUCCUCCUCCCUGAAACAUGAGGAUCACCCAUGUAAAGC [Eternabot solution 45] (Eterna round: R96, puzzle: Exclusion NG 1)”, for which the “apparent KD of MS2 coat protein” value runs as follows: (input ligand: FMN 200 uM) 56.4 nM; under setting [4], 53.7 nM; (input ligand: none) 93.8 nM.
For the sequence “AUGUGCACGCUGCGGUCCUACAUGAGGAUCACCCAUGUGGUCUGGUGGCGUGGGUCACCGGACUUGGCUCGUCUUGC [salish99_S_TOV1_R5_058] (Eterna round: R97, puzzle: Sensor, turn-off variant 1)”, the “apparent KD of MS2 coat protein” value (input ligand: FMN 200 uM) was 21.4 nM and the “apparent KD of MS2 coat protein” value (input ligand: none) was determined as 21.2 nM.
Turning to “AUUAAACAUGUAGGAUAUGCGUGGCGAAGCUAUGCAGAAGGACAUGAGGAUCACCCAUGUAAAAGCGUCUGCGUACAGAUGCAA [Mat - Exclusion NG 1 - Mod of JL - D84] (Eterna round: R96, puzzle: Exclusion NG 1)”, the “apparent KD of MS2 coat protein” value amounted to 468 nM (input ligand: FMN 200 uM), 28 nM under setting [4] and 38.9 nM (input ligand: none).
Turning to “AUUAAGCAGCAGGAUAUAAGUAUCUGAUGGUGGUUAGAAGGGCUGACAUGAGGAUCACCCAUGUGCUCUUCGUG [Tieruseres] (puzzle: Exclusion 6)”, the “apparent KD of MS2 coat protein” value is, setting by setting: under setting [2], 16.1 nM; under setting [1], 10.1 nM; under setting [3], 14.1 nM.
For “AUUAGCGUAGGAUAUUGAAACAUGUACAUGAGGAUCACCCAUGUGAGGUGAGUCUUCGUUUAAGAAGGGCGCAGAA [EX5 #40] (Eterna round: R97, puzzle: Exclusion 5)”, the “apparent KD of MS2 coat protein” value by setting is: (input ligand: FMN 200 uM) 213 nM; (input ligand: none) 1030 nM.
Consider “AUUAUGUCAGGAUAUCAGUAGUAAAAAAAAAAAAUUACUACUGAGAAGGGACAUGAGGAUCACCCAUGUCAAAA [EX4 308: Super Stable 8] (Eterna round: R96, puzzle: Exclusion 4)”, for which, under setting [4], the “apparent KD of MS2 coat protein” value came out at 21.3 nM.
Turning to “AUUCCUCCUGUGAGGAUAUGCGUUACGCACCCGUCGCAGAAGGCACAUGAGGAUCACCCAUGUGAGUUACCAAU [BmEX4 A.11] (Eterna round: R97, puzzle: Brourd's mod of Exclusion 4)”, the “apparent KD of MS2 coat protein” value runs as follows: (input ligand: FMN 200 uM) 166 nM; (input ligand: none) 18.9 nM.
As to “AUUUAACAUGAGGAUCACCCAUGUGAGGAUAUGUCCAUUUUAAACAAAUAGGAUAUGGACAGAAGGCACACCGG [JR_Exclusion1_Sub007] (puzzle: Exclusion 1)”, the “apparent KD of MS2 coat protein” value under setting [1] came to 219 nM.
Take “AUUUAGAGAGGAUAUAUAUUGUGAAACAUGAGGAUCACCCAUGUAAUAAUAUGGAUAUAAAUAGAAGGCUCAUUUU [Mat - Exclusion 5 - JL mod - D11] (puzzle: Exclusion 5)”: the “apparent KD of MS2 coat protein” value reads like this: under setting [2], 26.1 nM; under setting [1], 21.2 nM; under setting [3], 25.1 nM.
In the case of “AUUUAGAGAGGAUAUAUAUUGUGAAACAUGAGGAUCACCCAUGUAAUAAUAUGGAUGUAAAUAGAAGGCUCAUUUA [Mat - Exclusion 5 - JL mod - D9] (puzzle: Exclusion 5)”, the “apparent KD of MS2 coat protein” value under setting [1] stood at 41.3 nM.
Take “AUUUUAACAUAGGAUAUCGAAUUUAUCAUUUAACGAGAAGGAUGAACAUGAGGAUCACCCAUGUGGUAUCAUGG [JL-ex6-3.01] (puzzle: Exclusion 6)”: the “apparent KD of MS2 coat protein” value by setting is: under setting [2], 160 nM; under setting [1], 265 nM; under setting [3], 105 nM.
As to “AUUUUGUGAGGAUAUCAGGUGUGCUAGCGUACUGGUACAUCUGAGAAGGCACAUGAGGAUCACCCAUGUUUAUU [Mat - Exclusion 4 - Mod of JL - D39] (puzzle: Exclusion 4)”, under setting [1], the “apparent KD of MS2 coat protein” value is 25.6 nM.
Consider “CAAAAGCUAGGAUAUCGUAAACAAGACAUGAGGAUCACCCAUGUGUCCGUGGCUGACCUCCGAGAAGGAGCAAUAU [Bilate] (puzzle: Exclusion 5)”, for which the “apparent KD of MS2 coat protein” value under setting [2] was determined as 23.6 nM, the “apparent KD of MS2 coat protein” value under setting [1] is 16.8 nM and the “apparent KD of MS2 coat protein” value under setting [3] stood at 18.6 nM.
